Results reported in a protein production outcome set (Wang et al. 2014).

Assay: label from the status in PepcDB records

Protein production, not failed:
NGKIALEEHFATEETLMDSAGFVPDKDWPELRSRLLDIQDRRVRLMDEHGIETMILSLNAPAVQAIADSTRANETARRANDFLAEQVAKQPTRFRGFAALPMQDPELAARELERCVKELGFVGALVNGFSQDNRSAVPLYYDMAQYWPFWETVQALDVPFYLHPRNPLPSDARIYDGHAWLLGPTWAFGQETAVHALRLMGSGLFDKYPALKIILGHMGEGLPYSMWRIDHRNAWIKTTPKYPAKRKIVDYFNENFYLTTSGNFRTQTLIDAILEIGADRILFSTDWPFENIDHAADWFENTSISEADRKKIGWGNAQNLFKLNR
NNELTQFLPRIVTLKKPPGAQLGFNIRGGKASQLGIFISKVIPDSDAHRAGLQEGTXVLAVNDVDFQDIEHSKAVEILKTAREISMRVRFF
NPNPISIPIDLSQAGSVVEKEVKIEESWSYHLILQFAVHDRKEDGGLDGKRVWKFLGFNSYDPRDGKQVGYVDYRLAKSELGDLIDETYDCDGTVVPIKITIHQINQDNTKKLIADNLYMTKGNGSGAYTRDITTISLDKGKYIFRIENIEAFSEMIGRKVDFTIYINKRDK
NSSKSLEAELVRDRQELIDARKKELKAYMMMGVTAIKPLYDSDVNGSNKQAAKEILKAMRFESDGYFFAYDSQGINTLHAIKPSLEGKNLYDLKDENGVAVIAGLIDASQKGDGFLYFSWHKPTINAQAPKLGYAEYLQKWDWVLGTGIYIDDIDQQVAMQRELRTQELNQHT
NTKQLRFEDVVNQSSPKNCTVYCGGIASGLTDQLMRQTFSPFGQIMEIRVFPEKGYSFVRFSTHESAAHAIVSVNGTTIEGHVVKCYWGKESPDMT
PDADPVEIENRIIELCHQFPHGITDQVIQNEMPHIEAQQRAVAINRLLSMGQLDLLRSNTGLLYRIKD
PDISVAQPASALRYHLRPPRRNDGAAIHQLVSECPPLDLNSLYAYLLLCEHHAHTCVVAESPGGRIDGFVSAYLLPTRPDVLFVWQVAVHSRARGHRLGRAMLGHILERQECRHVRHLETTVGPDNQASRRTFAGLAGERGAHVSEQPFFDRQAFGGADHDDEMLLRIGPFTH
PEKPAKTQKTSLDEALQWRDSLDKLLQNNYGLASFKSFLKSEFSEENLEFWIACEDYKKIKSPAKMAEKAKQIYEEFIQTEAPKEVNIDHFTKDITMKNLVEPSLSSFDMAQKRIHALMEKDSLPRFVRSEFYQELI
PFYTQGDSLTSEDHLDDTWVTVFGFPQASASYILLQFAQYGNILKHVMSNTGNWMHIRYQSKLQARKALSKDGRIFGESIMIGVKPCIDKNVMENSDRGVLSSPSL
PGSFSQEAAEIFGSDLVPVRSISEIFHKISVTGDYGIVPIENSIEGPVNETLDGLFRHEDIYIVDHVEIPIEIFLASNCDTENIRRIYSHPHAIAEAGDYLERTENIEVIRTSSTSEAAKLASMDEAGAALCSMKAAQHYGLANTVKIESKSRNITRFILIGRERN
PGSPPGEGAPLAADVYVGNLPRDARVSDLKRALRELGSVPLRLTWQGPRRRAFLHYPDSAAAQQAVSCLQGLRLGTDTLRVALARQQRDK
PIDLITVGSLIELQDSQNPFQYWIVSVIENVGGRLRLRYVGLEDTESYDQWLFYLDYRLRPVGWCQENKYRMDPPSEIYPLKMASEWKCTLEKSLIDAAKFPLPMEVFKDHADL
PIEGEKVDLRIMSTTDLHTNLVNYDYYQDKESQKIGLAKTAVLIEEAKKENPNTVLVDNGDVIQGTPLGTYKAIVKPVAENEEHPMYQAMNALGYDASTLGNHEFNYGLDYLKKIIATANLPILNANVLDFKTHQPVFKTYDIITKTFKDSTGRAVALNIGITGIVPPQILNWDKANLEGKVIVKDSVKAIEEIVPTMRAKGADVILVLSHSGIGDDRYEEGEENVGYQIASIKGVDAVVTGHSHAEFPSGNGTGFYEKYTGVDGINGKINGTPVTMAGKYGDHLGIIDLGLSYTNGKWQVSESSAKIRKIDMNSTTADERIIALAKEAHDGTINYVRQ
PITDERVYESIGHYGGETVKIVRIEKARDIPLGATVRNEMDSVIISRIVKGGAAEKSGLLHEGDEVLEINGIEIRGKDVNEVFDLLSDMHGTLTFVLIPS
PKATAQMEGRLQEFLTAYAPGARLALADGVLGFIHHQIVELARDCLAKSGENLVTSRYFLEMQEKLERLLQDAHERSDSEEVSFIVQLVRKLLIIISRPAR
PLGLAPTASTTATLAMGDALAVALLIERGFRPEDFALFHPGGSLGKKLLLTVGDLMHSGDAVPLVGSATPIRDALFVITAKGLGITGVCAEDGALVGVVTDGDLRRSLGKGVDILNQPAGEIMTRNPKRINRSELAAKALQVMESHSITSLFVFDDTADNRPVGVIHLHDLLRA
PNARSQPSKTLFVKGLSEDTTEETLKESFDGSVRARIVTDRETGSSKGFGFVDFNSEEDAKAAKEAMEDGEIDGNKVTLDWAKPKGEGG
PRAAGHSEEVLEREASFSLTTIDGEVISLNNVGGDVVILWFMAAWCPSCVYMADLLDRLTEKYREISVIAIDFWTAEALKALGLNKPGYPPPDTPEMFRKFIANYGDPSWIMVMDDGSLVEKFNVRSIDYIVIMDKSSNVLYAGTTPSLGELESVIKSVQGG
PVEEVMPVLEEKERSASYKPVFVTEITDDLHFYVQDVETGTQFQKLMENMRNDIASHPPVEGSYAPRRGEFCIAKFVDGEWYRARVEKVESPAKIHVFYIDYGNREVLPSTRLGTLSPAFSTRVLPAQATEYAFAFIQVPQDDDARTDAVDSVVRDIQNTQCLLNVEHLSAGCPHVTLQFADSKGDVGLGLVKEGLVMVEVRKEKQFQKVITEYLNAQESAKSARLNLWRYGDFRADDADEFGYSR
PVGWQCPGCTFINKPTRPGCEMCCRARPEAYQVPASYQP
PVNQVQSSVSWPQNGSLNSVSAPLMSYTPISFDAKIPVASVDKLRKDQDLILGTLPANSEDAGARGLFVRANDDGLQITSHGELVLDLSKRELAQLPADATIAISATEDETTAGIEGDDSTTETVERDVRPIIMGIYTELESNAAADLLNAGLNAHVEINSRFTSSPTLAKYAS

Protein production, failed:
NSNTLSQIQLNEQSCLSQVVNNLYRLHNSEFVFRNVFSVFDEFRQYFSLLENKSAFYQADSRMDKLSAVFWQFEEINKEVILRPCHNDLVPENMLLQDDRLFFIDWEYSGLNDPLFDIATIIEEAHLSKEAADFLLETYCNQTNKYHKTEFQIAHKRLKIHRFCQNVLWFLWTKVKEEHGENFGDYALKRLDAAFKLLEELP
NTRLRRTKEVNEILGIDPVDKNLLVNQFVKWDPKEDKHIEVSMPKKLEKMADFLGVSVQEVYDEMLSRKRYLELMLKRGIRNYKEVTRYIHAYYRNPELAMTKME
PAAEAAPMSLAIHSTTGTRYDLAVPPDETVEGLRKRLSQRLKVPKERLALLHKDTRLSSGKLQEFGVGDGSKLTLVPTVEAGLMSQASRPEQSVMQ
PAMICRYRPDLTLTFGNRPLAAYLECAPEELPGSNLGQWLSAEQREGFERRLKLLSPEYPVSTAEINLQLPGREHAWWVWSDRGVFDEQGQLLEIQAVGRDNTEVRRAQQQLTQSAKMATLGEMATGLAHEINQPLNVMRMAIVNVLKRLGNG
PARIDTLEIKLLFAGDIMTHGPQIESAKCEGGRVYDFSSSFDTLASRIGAADLAIGNLETTFAGAPYSGYPTFSSPDAMGEALKNAGFDVLTTANNHTADKGKKGIIRTLDMLDSLGIAHTGSYRDIFDRDKMTPLILEVKGVRIAILAYTYGTNGMPVPAPTWVDPIDTVMIKKDLLRADSLGADYRIVQIHWGIEYRKEPDSEQLELARKLHRYGADAIIGSHPHVV
PFGSTSGSLFGPSSFTAAPTGTTIKFNPPTGTDTMVKAGVSTNISTKHQCITAMKEYESKSLEELRLEDYQANRKGPQNQVGAGTTTGLFGSSPATSSATGLFSSSTTNSGFAYGQNK
PGIERLAEEATASFPEARIAVLSSDMFGTARALKERIEAIAAGEADIVIGTQLVAKGHNFPLLTLVGVIDADLGLQGSDLRAAERTFQLMRQVAGRAGRAEKPGQALLQTYQPE
PGKEAQPAENVEFIYENGTWKLSQSWACTLIKNTVAPEQIPAMCADPAAPAPEGQPAPEQAPAPEAPAPEQAPAPEAPAPQ
PGLSLRTLDMDRLEEEVRTVRDIYNDAWSDNWGFVPMTEGELQQLADELKQIVDPEIVFFVEHEGTPVGFSVALPDVNQALRHVPDGRLFPYGVPSGLTTLFLHMQYGVHECRMPLMGIRKDYQGKGLDSMLVLATIENGPANGYAACEMSWVLDTNDRLKNHVESLGAVVDKEYAMFETPLSQND
PLKEQKVINTANIKTNSKLDLAEYENGLINIATQQFDTESHVLQLNQYIPEKLIDELVAKVEAPVLTNIIEQDYFGKQNSNELSLSGVMIGLAMSSSVSNEEAMSKGTEVAKQLIEAINKNDKYNKSPITFAIFKQESTSSLKNGTYIASATVQKNDTNLGNWSTIDEKSYSYPSDEFTQAHGEDNTKINNFAKEIKGFSNGDFIPVNAKVSYKKDQMDTLNMNIVIKYNGKTELMALTQLAAQGMLDKLPKDAKVQLQIKSESKIEAVIIKEKNSDKPFV
PLKRSLPPDTAITKTDRVTVKGEEVPYEVTTGTQPVYGDDDTAVASLHYTYYRRSDVDDRSGRPLMISFNGGPGSGSLWMHLGYTSPKHLLISDEGYPVQPYGVEDNNQSIIDVADIVYVNPVNTGFSRVIDDDTDAEQFFGVNADVDYLADWIDTFISRHGRWRSPKYLIGESYGTTRVAGLAGELQNSHWTYLNGVILVSPTGLGMEPAGPSPRSEALKLPYYAATAWYHEQLPDALQSRDLQALLSEVEDYTIEEYIPAVTRGGFVEDARRQAVAQQVARYSGLSEPFVLDHNLAVPADAFWKELLQDEGRTVGRLDSRYEGIDVTNAGSEYDYPAELTAWNHAFTPAINHYLRDDLGFTTDLQYNTFGNVYPWDETENNTGAQLREAMAQNPYLHVMVQSGYYDGATDYFSAKYVMWNLGTRETMRDRLRFEGYRSGHMMYLRSEDLATSNEDIRTFIEESIPDEGTPARYGRNR
PLPEGMQQQFEDTISRDAKQQPTWDRAQAENVRKILESVPPIVVAPEVLELKQKLADVANGKAFLLQGGDCAETFESNTEPHIRANVKTLLQMAVVLTYGASTPVIKMARIAGQYAKPRSSDLDGNGLPNYRGDIVNGVEATPEARRHDPARMIRAYANASAAMNLVRALTSSGTADLYRLSEWNREFVANSPAGARYEALAREIDSGLRFMEACGVSDESLRAADIYCSHEALLVDYERSMLRLATDEEGNEELYDLSAHQLWIGERTRGMDDFHVNFASMISNPIGIKIGPGITPEEAVAYADKLDPNFEPGRLTIVARMGHDKVRSVLPGVIQAVEASGHKVIWQSDPMHGNTFTASNGYKTRHFDKVIDEVQGFFEVHRALGTHPGGIHIEFTGEDVTECLGGAEDITDVDLPGRYESACDPRLNTQQSLELAFLVAEMLRN
PRPDKCPCEVYHLMKNCWETEASFRPTFENLIPILKTVHEKYQGQAPSVFSVC
PTWMVVNPVAGGGKWLQYEQHVIRELTKKYRLSIRQTDETTSAESLALQAKQSGVNQVIVSGGDGTVTEVASQLVGTDIQLGIIPLGTANALCHVLYGIGMKLSPVEKACEAILAGHCQRIDTAECNQ
